{
  "source": "patent US11957762B2",
  "about": "“Immune tolerant and non-immune tolerant elastin-like recombinant peptides and methods of use” (University of Utah Research Foundation, priority 2015, dated 2024)",
  "key": {"[1]": {"tested_on": "regular 4T1-luc cells", "assay": "Cytotoxicity, regular 4T1-luc cells", "type": "cell-based, murine", "experimental": "(§1) Cytotoxicity studies. The cytotoxicity was measured as previously described (Zhao, et al; Mol. Pharm, 2014; 11(8):2703-12). The incubation time was 72 hours. 4T1-lu mammosphere cells were generated as the previously described (Zhao, et al; Mol. Pharm, 2014; 11(8):2703-12)."}, "[2]": {"assay": "Tissue distribution of Sali-ABA in 4T1-luc tumored mice", "settings": "mouse, in vivo, 24 h", "experimental": "(§2) Pharmacokinetics and biodistribution study. Sali-ABA concentrations in blood and tissues were analyzed, and the concentrations were analyzed as previously described (Zhao, et al; Mol. Pharm, 2014; 11(8):2703-12).\nThe aforementioned slow clearance and particle size of iTEP-MPBH-ABA-Sali could enable the conjugate to leverage the EPR effect and, therefore, more efficiently accumulate in tumors. […] Tumors and all following organ samples were collected at 24 hours post administration. The quantities of Sali-ABA were expressed as percentage of initial dose normalized by weight of organs, ID %/gram. The data were analyzed by one-way ANOVA. P-value is shown in the figure and * indicates a significant difference. At the same time, there was a reduction of Sali-ABA accumulation in the heart when iTEP-MPBH-ABA-Sali NP was compared with free Sali, although the difference was not statistically significant (0.57±0.18 ID %/gram vs 0.86±0.11 ID %/gram, FIG. 11C). The data were analyzed by one-way ANOVA. The reduction may benefit the toxicity profile of the NP as the heart is an organ sensitive to Sali (Bastianello, et al., J S Afr Vet Assoc, 1996; 67(1):38-41). […] The data were analyzed by one-way ANOVA. P-values are shown in the figure and * indicates a significant difference."}, "[3]": {"tested_on": "4T1-luc orthotopic tumors", "assay": "Tumor growth, metastasis and survival study", "type": "in vivo, Balb/c mice", "experimental": "Tumor growth study. Balb/c mice were inoculated subcutaneously with 10^6 4T1-luc cells in 50 μL PBS at the #9 mammary glands. At the seventh day after inoculation when the volumes of all tumors reached or exceeded 100 mm^3, the mice were randomly assigned into groups as described in FIGS. 12 and 13. The dosing and dosing schedules are as following: • 1. PBS control (three day interval); Sali-ABA (20 mg/Kg BW, three-day interval), • 2. iTEP-MPBH-ABA-Sali NP (20 mg/Kg BW, three-day interval), • 3. PTX NP (10 mg/Kg BW, three-day interval), • 4. PTX NP and iTEP-MPBH-ABA-Sali combination, iTEP-MPBH-ABA-Sali NP on the first day (20 mg/Kg BW), PTX NP on the second day (10 mg/Kg BW), then two-day interval.\nSeven total doses were administered intravenously. The length and width dimensions of tumors were measured with a caliper every other day. Tumor volumes were estimated using the formula: Tumor Volume=(length×width^2/2) (Zhang et al., Biomaterials, 2012; 33(2):679-91). Also, mouse body weight was recorded the same day when the tumor size was measured. The treatments of PTX NP and the combinational therapy were done after the results of the first three treatment groups were obtained.\nMoreover, in order to monitor metastasis, bioluminescence signals released from 4T1-luc cells were monitored as previously described (Tao et al., BMC Cancer, 2008; 8(1):228). Specifically, experimental mice were injected intraperitoneally with 100 μl of D-luciferin (15 mg/ml) at predetermined time points (twice each week, 3-4 days interval). At 15 minutes after luciferin injection, the mice were imaged under anesthesia in a Xenogen IVIS 200 biophotonic imager (PerkinElmer, Inc., MA, USA). The bioluminescence intensity was denoted using photon emission from the subject or radiance in the unit of photons/sec/cm^2/sr (steradian). […] The overall survival time was counted as days between tumor inoculation and mouse sacrifice. Metastasis-free survival and overall survival were analyzed by the Kaplan-Meier method, and the median survival of each groups were compared using the Log-rank test with GraphPad V5.0."}, "[4]": {"assay": "Pharmacokinetics (plasma Sali-ABA) after intravenous administration", "set-up": "species or system mice", "settings": "mouse, in vivo", "experimental": "as §2\nResults. The pharmacokinetics of Sali-ABA and iTEP-MPBH-ABA-Sali were compared after they were administered intravenously to mice at a dose of 20 mg/Kg Sali-ABA equivalent. Plasma concentrations of Sali-ABA after the administration of either formulation were monitored for up to 24 hours (FIG. 11A). The temporal changes of the concentrations were fitted into a two-compartment pharmacokinetics model."}, "[5]": {"assay": "In vitro Sali-ABA release assay", "type": "physicochemical", "settings": "neutral pH (PBS), up to 100-hour monitoring", "experimental": "In vitro Sali-ABA release assay. The release of Sali-ABA from iTEP-MPBH-ABA-Sali NP was measured after the NP was incubated in PBS (pH=7.4) or 0.1M sodium acetate/acetic acid buffer (pH=5) at 37° C. Multiple repeats of each mixture were kept in separate Eppendorf tubes and shaken at 100 rpms at 37° C. At predetermined time points, free Sali-ABA in one tube of sample was determined by HPLC based on a standard curve of Sali-ABA. The standard curve was established at 280 nm. The HPLC setup was the same as the described herein.\nThe relationship of the percentage of Sali-ABA release (F) with time (t) was fitted using the following equation and GraphPad V5.0. F%,released=100[…]"}, "[6]": {"assay": "Hydrodynamic diameter by dynamic light scattering (DLS)", "type": "physicochemical", "settings": "25 μM in PBS at 37° C.", "experimental": "Characterization of the size of iTEPB-pOVA and iTEPB-iTEPA-pOVA fusions. The particle size distribution of the iTEP fusions was determined by dynamic light scattering (DLS) using a Zetasizer Nano-ZS instrument (Malvern Instruments, Malvern, UK) as previously described.^(29) The fusions were prepared at 5 μM and 25 μM in PBS and equilibrated at 37° C. for the measurement. The reported results represented the average particle size by number.\nDynamic light scattering (DLS) measurement. The measurement was carried out as previously described. iTEP, iTEP-MPBH-ABA-Sali conjugate, or PTX NP were measured at 25 μM in PBS at 37° C. using a Malvern Zetasizer Nano system (Malvern, Chester County, PA, USA).\nCharacterization of hydrodynamic diameters of iTEP-vaccine fusions. Hydrodynamic diameters of iTEP-vaccine fusions were determined by dynamic light scattering (DLS) using a Zetasizer Nano-ZS instrument (Malvern Instruments, Malvern, UK) as previously described (Zhao et al., Mol Pharm, 2014; 11(8):2703-12). The samples were resuspended at concentrations of 5, 25, 50, and 100 μM in PBS and sat at room temperature overnight before measurement. Some samples were kept in 5% C02 at 37° C. for 16 h before DLS measurement. Hydrodynamic diameter results of the sample of 5 μM concentration were reported because they were not affected by the used sample concentrations. Hydrodynamic diameters were presented using the size-by-number distribution approach. Z-average values and sizes-by-intensity data, however, were also reported."}, "[7]": {"tested_on": "mammosphere 4T1-luc cells", "assay": "Cytotoxicity, mammosphere 4T1-luc cells (CSCs)", "type": "cell-based, murine", "experimental": "as §1"}},
  "note": "Entries after “also recorded” stand apart in the source; their conditions may differ. Where two headings read alike, the source gives them in different places.",
  "data": [
    {"molecule": "CC[C@@H](C(=O)[C@@H](C)[C@@H](O)[C@H](C)[C@@H]1O[C@@H]([C@@H](CC)C(=O)O)CC[C@@H]1C)[C@H]1O[C@]2(C=C[C@@H](O)[C@]3(CC[C@@](C)([C@H]4CC[C@](O)(CC)[C@H](C)O4)O3)O2)[C@H](C)C[C@@H]1C", "note": "[Sali, Salinomycin, reference compound]", "values": [
      {"measurement": "IC50", "setting": "[1]; Mus musculus, 4T1-Luc, 72 h", "result": 4.4, "unit": "µM"},
      {"measurement": "Sali-ABA accumulation in the heart", "setting": "[2]", "result": "0.86±0.11", "unit": "ID %/gram"}
    ]},
    {"molecule": "iTEP-MPBH-ABA-Sali: conjugate of hydrophilic iTEP (SEQ ID NO: 58) with Sali-ABA-MPBH, self-assembled into a NP (conjugate, conjugated to Sali via ABA-MPBH linker) GGAGVPGGAGVPGGAGVPGGAGVPGGAGVPGGAGVPGGAGVPGGAGVPGGAGVPGGAGVPGGAGVPGGAGVPGGAGVPGGAGVPGGAGVPGGAGVPGGAGVPGGAGVPGGAGVPGGAGVPGGAGVPGGAGVPGGAGVPGGAGVPGGAGVPGGAGVPGGAGVPGGAGVPGGAGVPGGAGVPGGAGVPGGAGVPGGAGVPGGAGVPGGAGVPGGAGVPGGAGVPGGAGVPGGAGVPGGAGVPGGAGVPGGAGVPGGAGVPGGAGVPGGAGVPGGAGVPGGAGVPGGAGVPGGAGVPGGAGVPGGAGVPGGAGVPGGAGVPGGAGVPGGAGVPGGAGVPGGAGVPGGAGVPGGAGVPGGAGVPGGAGVPGGAGVPGGAGVPGGAGVPGGAGVPGGAGVPGGAGVPGGAGVPGGAGVPGGAGVPGGGVLPGVGGVLPGVGGVLPGVGGVLPGVGGVLPGVGGVLPGVGGVLPGVGGVLPGVGGVLPGVGGVLPGVGGVLPGVGGVLPGVGGVLPGVGGVLPGVGGVLPGVGGVLPGVGGVLPGVGGVLPGVGGVLPGVGGVLPGVGGVLPGVGGVLPGVGGVLPGVGGVLPGVGGVLPGVGGVLPGVGGVLPGVGGVLPGVGGVLPGVGGVLPGVGGVLPGVGGVLPGVGGVLPGVGGVLPGVGGVLPGVGGVLPGVGGVLPGVGGVLPGVGGVLPGVGGVLPGVGGVLPGVGGVLPGVGGVLPGVGGVLPGVGGVLPGVGGVLPGVGGVLPGVGGVLPGVGGVLPGVGGVLPGVGGVLPGVGGVLPGVGGVLPGVGGVLPGVGGVLPGVGGVLPGVGG", "values": [
      {"measurement": "median overall survival", "setting": "[3]; days after tumor inoculation", "result": 39, "unit": "days"},
      {"measurement": "development of metastasis in treated mice", "setting": "[3]; mouse, in vivo, listed as iTEP-MPBH-ABA-Sali NP", "result": "No mice in the NP-treated group developed metastasis; also recorded: zero metastasis"},
      {"measurement": "inhibition of primary tumor growth", "setting": "[3]; seven intravenous doses", "result": "slowed primary tumor growth"},
      {"measurement": "elimination half-life, times longer than free Sali-ABA administration", "setting": "[4]", "result": 35, "unit": "times"},
      {"measurement": "release at the neutral pH", "setting": "[5]", "result": "no detectable release"},
      {"measurement": "hydrodynamic diameter (DLS)", "setting": "[6]", "result": "51.2±18.2", "unit": "nm"},
      {"measurement": "times more toxic to mammosphere 4T1-luc cells (CSCs) than to regular 4T1-luc cells", "setting": "[7]", "result": "about eight"},
      {"measurement": "IC50", "setting": "[7]; mammosphere 4T1-luc cells, 72 hours", "result": 5.8, "unit": "µM"},
      {"measurement": "cytotoxicity, times lower than Sali-ABA-MPBH alone", "setting": "[1]; regular 4T1-luc cells", "result": 2.6, "unit": "times"},
      {"measurement": "IC50", "setting": "[1]; regular 4T1-luc cells, 72 hours, read-out: IC50", "result": 42.2, "unit": "µM"}
    ]}
  ]
}
